In the experiment the target is E2tag (tPA signal+E2(384-711)+tag; soluble E2/NS1 of HCV J1 clone with C-terminal E-tag) (hepatitis C virus (HCV J1 clone)). Put plainly: SPR, BIACORE X; E2tag amine-coupled to CM5 chip, scFv1-1 injected in HBS buffer.

B1: single chain antibody scFv1-1 (scFv)
scFv: QVQLVQSGAEVKKPGSSVKVSCKASGGTYIDQPIGWVRQAPGQGLEWMGGIIPLSGPPHYAQKFQGKVSITADESTSTAYLELTSLTSEDTAVYYCARVLRGYCRRGSCYDWLDPWGQGTLVTVSSGGGGSGGGGSGGGGSALDIQMTQSPSSLSASVGDRVTITCQASQDISNYLNWYQQKPGKAPKLLLYATSRLYSGVPSRFSGSGSGTDFTLSISSLQPEDFATYYCQQTKSFPLTFGGGTKVEIKRAAAEQKLISEEDLGSRSTHHAHHHAA
In turn, B1 showed an equilibrium dissociation constant (Kd) of 2.2 nM.

Values taken from patent US20030157132A1.
